# Experimental data reported in US20120189540A1 (STEMLINE THERAPEUTICS, published 2012).
# Assays:
# [1] = biological target: IL-3 receptor alpha subunit (IL3Rα, CD123) (human) (UniProt P26951); assay: flow cytometry on ML-1 cells, isotype control-PE at 10 µg/ml [panel ML-1 (1900/cell]
# [2] = biological target: transferrin receptor (human) (UniProt P02786); assay: cell-based or functional assay
# [3] = biological target: T1, IL-3 receptor alpha subunit (IL3Rα, CD123) (human, UniProt P26951 19-378); assay: flow cytometry on TF-1 cells (CD123-expressing), mAb at 0.5 µg/ml, detected with R-PE goat F(ab')2 anti-mouse IgG, MOPC-21 isotype control subtracted [panel A]
# T1 construct: whole, on cells; also called IL3Rα chain; alpha subunit of the IL-3 receptor
# T1 sequence (P26951 19-378): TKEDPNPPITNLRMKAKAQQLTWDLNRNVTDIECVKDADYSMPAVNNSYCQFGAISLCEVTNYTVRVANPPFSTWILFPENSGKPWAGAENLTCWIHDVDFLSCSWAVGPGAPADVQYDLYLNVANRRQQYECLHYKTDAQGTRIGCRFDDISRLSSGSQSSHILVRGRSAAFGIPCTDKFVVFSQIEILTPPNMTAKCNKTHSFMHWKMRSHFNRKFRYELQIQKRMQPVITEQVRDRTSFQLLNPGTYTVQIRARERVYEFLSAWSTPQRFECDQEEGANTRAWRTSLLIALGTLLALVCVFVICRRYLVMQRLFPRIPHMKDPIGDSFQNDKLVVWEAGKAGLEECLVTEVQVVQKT
# transferrin receptor (human), sequence (P02786 whole entry): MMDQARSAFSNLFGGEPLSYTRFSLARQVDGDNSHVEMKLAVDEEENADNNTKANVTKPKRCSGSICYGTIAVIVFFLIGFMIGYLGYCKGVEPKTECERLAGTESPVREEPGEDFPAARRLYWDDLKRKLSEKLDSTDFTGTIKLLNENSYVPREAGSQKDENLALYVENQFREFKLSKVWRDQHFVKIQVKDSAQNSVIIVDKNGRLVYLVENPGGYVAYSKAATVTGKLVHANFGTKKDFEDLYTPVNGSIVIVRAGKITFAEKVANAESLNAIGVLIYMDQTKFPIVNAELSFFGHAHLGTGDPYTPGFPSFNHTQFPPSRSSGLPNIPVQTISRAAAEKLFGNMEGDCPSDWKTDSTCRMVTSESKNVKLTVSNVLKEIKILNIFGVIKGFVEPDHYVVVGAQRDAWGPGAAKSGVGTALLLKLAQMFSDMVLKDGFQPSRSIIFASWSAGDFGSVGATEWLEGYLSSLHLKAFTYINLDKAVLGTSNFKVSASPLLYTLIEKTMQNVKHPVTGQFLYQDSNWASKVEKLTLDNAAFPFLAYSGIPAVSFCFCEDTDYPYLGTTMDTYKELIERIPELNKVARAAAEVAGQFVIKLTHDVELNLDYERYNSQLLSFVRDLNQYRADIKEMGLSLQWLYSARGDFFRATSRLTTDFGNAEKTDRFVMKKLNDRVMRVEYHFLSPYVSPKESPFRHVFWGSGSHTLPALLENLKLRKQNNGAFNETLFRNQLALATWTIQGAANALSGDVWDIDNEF
# IL-3 receptor alpha subunit (IL3Rα, CD123) (human), sequence (P26951 19-378): as the sequence (P26951 19-378) above
molecule,measurement,setting,value
isotype control-PE (antibody),"number printed beside the histogram (fluorescence on the FL-2:PE axis, not named on the sheet)",[1],7.1
HB21(Fv)-PE40 (scFv),"IC50(ng/ml), cytotoxicity (WST-8 cell viability) on ML-1",[2],5.2 ng/mL
same,"IC50(ng/ml), cytotoxicity (WST-8 cell viability) on Molm-14",[2],60 ng/mL
same,"IC50(ng/ml), cytotoxicity (WST-8 cell viability) on TF-1",[2],2.2 ng/mL
"monoclonal antibody 32701 (antibody, V domains shown) VH: QIQLVQSGPELKKPGETVKISCKTSGYVFTNYGMNWVKQAPGKGFKWMGWMNTNTGEPTSLEDFKGRFAFSLETSASTAYLQINNLKNDDTATYFCARSGGYDPMDYWGQGTSVTVSS VL: DIVLTQSPASLAVSPGQRATISCRASESVDNYGNTFMHWYQQKPGQPPKLLIYRASNLESGIPARFSGSDSRTDFTLTINPVEADDVATYYCQQSKEDPPTFGAGTKLELK",binding result,[3],binds
"monoclonal antibody 32716 (antibody, V domains shown) VH: QIQLVQSGPELKKPGETVKISCKASGYIFTNYGMNWVKQAPGKSFKWMGWINTYTGESTYSADFKGRFAFSLETSASTAYLHINDLKNEDTATYFCARSGGYDPMDYWGQGTSVTVSS VL: DIVLTQSPASLAVSLGQRATISCRASESVDNYGNTFMHWYQQKPGQPPKLLIYRASNLESGIPARFSGSGSRTDFTLTINPVEADDVATYYCQQSNEDPPTFGAGTKLELK",binding result,[3],binds
"monoclonal antibody 26292 (antibody, V domains shown) VH: QVQLQQPGAELVRPGASVKLSCKASGYTFTSYWMNWVKQRPDQGLEWIGRIDPYDSETHYNQKFKDKAILTVDKSSSTAYMQLSSLTSEDSAVYYCARGNWDDYWGQGTTLTVSS VL: DVQITQSPSYLAASPGETITINCRASKSISKDLAWYQEKPGKTNKLLIYSGSTLQSGIPSRFSGSGSGTDFTLTISSLEPEDFAMYYCQQHNKYPYTFGGGTKLEIK",binding result,[3],binds
